In data set [1] the test system is CCR5 megaTAL (Artificial). In words: cell_activity. The following applies: human CD34+ cells; full megaTAL site not given, HE site given.
Data set [2] concerns the target T1, BCL11A.B4.A3 I-OnuI homing endonuclease variant (Ophiostoma novo-ulmi).
T1 chain: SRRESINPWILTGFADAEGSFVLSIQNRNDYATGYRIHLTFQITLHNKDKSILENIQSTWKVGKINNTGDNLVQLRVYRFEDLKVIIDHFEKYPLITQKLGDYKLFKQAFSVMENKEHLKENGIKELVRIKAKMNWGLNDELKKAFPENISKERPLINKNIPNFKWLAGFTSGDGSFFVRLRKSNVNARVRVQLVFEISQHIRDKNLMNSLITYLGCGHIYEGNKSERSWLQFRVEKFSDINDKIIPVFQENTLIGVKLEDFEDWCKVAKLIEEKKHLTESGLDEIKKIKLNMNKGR
In words: flow; yeast surface display equilibrium binding titration. From the text: The DNA binding affinity and cleavage specificity of the I-OnuI variant BCL11A.B4.A3 was characterized. A plasmid encoding the BCL11A.B4.A3 variant identified during reprogramming (SEQ ID NO: 34) was transformed into S. cerevisiae for surface display.

For data set [3], the target named is T2, BCL11A.B4.A3 I-OnuI homing endonuclease variant (mammalian expression) (Ophiostoma novo-ulmi).
T2 chain: T1 chain
Nature of the data set: cell_activity; HEK 293T chromosomal mCherry reporter. Particulars: tags: mammalian expression plasmid. Here is the method: The activity of reprogrammed I-OnuI HEs that target the GATA-1 motif in the BCL11A gene was measured using a chromosomally integrated fluorescent reporter system (Certo et. al., 2011). Fully reprogrammed I-OnuI HEs that bind and cleave the BCL11A target sequence were cloned into mammalian expression plasmids and then individually transfected into a HEK 293T […] cell line that was reprogrammed to contain the BCL11A target sequence upstream of an out-of-frame gene encoding the fluorescent mCherry protein. Cleavage of the embedded target site by the HE and the subsequent accumulation of small insertions or deletions, caused by DNA repair via the non-homologous end joining (NHEJ) pathway, results in approximately one out of three repaired loci placing the fluorescent reporter gene back “in-frame”. mCherry fluorescence is therefore a readout of endonuclease activity at the chromosomally embedded target sequence. […] FIG. 4A.
A secondary I-OnuI variant library was generated by performing random mutagenesis one of the reprogrammed I-OnuI HEs that targets the BCL11A target site, identified in the initial reporter screen (BCL11.A.B4, SEQ ID NO: 6). In addition, display-based flow sorting was performed under more stringent cleavage conditions (pH adjusted to 7.2) in an effort to isolate variants with improved catalytic efficiency. FIG. 4B. […]

Take “CTTCCAGGAATTCTTTGGCCTG (double strand) [CCR5 HE target site]”: the activity in data set [1] turned out to be 10 % indels.

B1: BCL11A HE target site (dsDNA)
DNA 1: CAGTTGCTTTTATCACAGGCTC
DNA 2: GAGCCTGTGATAAAAGCAACTG
B1 displayed a Kd in data set [2] of roughly 0.5 nM. Further, the activity in data set [3] was roughly 3 fold vs BCL11A.B4.

Values taken from patent US20190184035, “BCL11A HOMING ENDONUCLEASE VARIANTS, COMPOSITIONS, AND METHODS OF USE” (bluebird bio, Inc., published 2019).
